Measurements taken from US20240123058A1 (XIAMEN UNIVERSITY, published 2024).

Legend:
[1] = target: T1, EBV gB protein ectodomain (24-683 aa) of the substituted M81 strain gB protein, C-terminal 6×His tag (EBV M81 strain, UniProt P0C762 24-683); assay: SPR, Biacore 8K, antibody captured on Protein A chip, gB as analyte
T1 construct: Expressed in 293F cells; also called EBV gB ectodomain
T1 chain: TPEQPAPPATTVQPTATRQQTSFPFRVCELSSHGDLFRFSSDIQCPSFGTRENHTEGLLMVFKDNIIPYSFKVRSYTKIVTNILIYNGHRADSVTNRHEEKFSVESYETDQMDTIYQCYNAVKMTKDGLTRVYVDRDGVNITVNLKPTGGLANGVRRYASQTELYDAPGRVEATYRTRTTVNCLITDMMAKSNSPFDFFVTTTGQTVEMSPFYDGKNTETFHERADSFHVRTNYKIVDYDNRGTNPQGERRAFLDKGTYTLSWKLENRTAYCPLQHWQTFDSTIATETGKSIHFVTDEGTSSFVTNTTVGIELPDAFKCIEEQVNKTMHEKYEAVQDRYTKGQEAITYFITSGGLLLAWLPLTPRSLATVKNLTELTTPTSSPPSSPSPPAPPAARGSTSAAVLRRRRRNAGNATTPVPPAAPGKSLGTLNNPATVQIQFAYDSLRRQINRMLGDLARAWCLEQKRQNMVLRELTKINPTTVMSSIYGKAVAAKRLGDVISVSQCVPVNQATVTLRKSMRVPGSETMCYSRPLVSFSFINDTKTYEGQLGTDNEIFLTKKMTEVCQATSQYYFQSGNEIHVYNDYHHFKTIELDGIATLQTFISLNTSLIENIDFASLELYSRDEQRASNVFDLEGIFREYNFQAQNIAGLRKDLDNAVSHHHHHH

[2] = target: T1, EBV gB protein ectodomain (24-683 aa) …; assay: indirect ELISA on coated wild-type gB ectodomain, 3A5 titrated [right panel]
[3] = target: T2, wild-type full-length EBV gB protein expressed on cells (EBV M81 strain, UniProt P0C762 22-857); assay: immunofluorescence on MDCK cells transfected with full-length wild-type gB
T2 construct: also called gB protein expressed by cells; natural gB protein
T2 chain: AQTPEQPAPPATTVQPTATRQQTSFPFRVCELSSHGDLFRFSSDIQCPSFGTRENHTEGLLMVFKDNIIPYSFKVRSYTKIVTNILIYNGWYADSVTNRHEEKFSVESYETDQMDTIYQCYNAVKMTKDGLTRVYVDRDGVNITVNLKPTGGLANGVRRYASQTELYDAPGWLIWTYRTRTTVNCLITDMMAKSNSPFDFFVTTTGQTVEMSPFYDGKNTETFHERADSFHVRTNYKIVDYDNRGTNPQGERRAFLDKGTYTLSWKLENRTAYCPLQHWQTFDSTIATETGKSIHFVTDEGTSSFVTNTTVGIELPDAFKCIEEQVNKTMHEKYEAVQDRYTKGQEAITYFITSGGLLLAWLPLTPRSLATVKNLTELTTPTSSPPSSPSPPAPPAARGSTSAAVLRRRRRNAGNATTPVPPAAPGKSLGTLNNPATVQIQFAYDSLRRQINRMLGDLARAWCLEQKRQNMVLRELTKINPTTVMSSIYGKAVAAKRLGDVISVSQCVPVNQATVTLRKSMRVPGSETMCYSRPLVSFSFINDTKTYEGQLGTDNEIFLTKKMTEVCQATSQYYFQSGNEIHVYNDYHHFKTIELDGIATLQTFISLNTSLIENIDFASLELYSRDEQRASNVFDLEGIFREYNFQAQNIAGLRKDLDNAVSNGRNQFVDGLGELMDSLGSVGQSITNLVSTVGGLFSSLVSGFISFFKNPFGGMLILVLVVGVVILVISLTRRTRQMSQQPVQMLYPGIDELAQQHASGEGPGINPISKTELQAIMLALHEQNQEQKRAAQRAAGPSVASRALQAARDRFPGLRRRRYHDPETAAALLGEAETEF

[4] = target: T3, gB-295~390aa; assay: Western blot of gB segments displayed on HBc149, reduced and heated
T3 construct: as f3
T3 HBc149/mut carrier with inserted gB segment: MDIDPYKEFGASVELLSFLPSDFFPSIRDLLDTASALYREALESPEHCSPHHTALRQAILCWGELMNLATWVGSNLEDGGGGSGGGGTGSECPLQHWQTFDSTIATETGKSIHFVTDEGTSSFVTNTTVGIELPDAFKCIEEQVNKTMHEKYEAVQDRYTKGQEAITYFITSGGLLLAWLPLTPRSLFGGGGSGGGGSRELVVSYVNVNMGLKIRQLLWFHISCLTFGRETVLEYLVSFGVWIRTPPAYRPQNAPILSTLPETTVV

[5] = target: T1, EBV gB protein ectodomain (24-683 aa) …; assay: SPR (Biacore 8K): antibody captured on a Protein A chip, EBV-gB as analyte at 1.5625-200 nM
[6] = target: T1, EBV gB protein ectodomain (24-683 aa) …; assay: indirect ELISA, coated gB ectodomain
[7] = target: gB protein on EBV virions used in the neutralization models (Epstein-Barr virus); assay: cell-based or functional assay
[8] = target: T4, gB-528~616aa; assay: Western blot of gB segments displayed on HBc149, reduced and heated
T4 construct: as f3
T4 HBc149/mut carrier with inserted gB segment: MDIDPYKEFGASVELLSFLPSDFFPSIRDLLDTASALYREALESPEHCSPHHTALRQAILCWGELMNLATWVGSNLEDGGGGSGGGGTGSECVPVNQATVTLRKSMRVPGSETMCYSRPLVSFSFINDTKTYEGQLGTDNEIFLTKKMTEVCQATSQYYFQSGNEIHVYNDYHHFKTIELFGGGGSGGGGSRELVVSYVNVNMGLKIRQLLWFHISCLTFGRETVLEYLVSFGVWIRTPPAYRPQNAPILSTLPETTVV

[9] = target: T5, HBc149 protein chimerized with gB-331˜367aa epitope; assay: indirect ELISA on the coated HBc149 protein chimerized with gB-331~367aa, antibody titrated
T5 construct: also called Recombination protein gB aa331-367 + HBc149/mut; HBc149 chimeric protein
T5 chain: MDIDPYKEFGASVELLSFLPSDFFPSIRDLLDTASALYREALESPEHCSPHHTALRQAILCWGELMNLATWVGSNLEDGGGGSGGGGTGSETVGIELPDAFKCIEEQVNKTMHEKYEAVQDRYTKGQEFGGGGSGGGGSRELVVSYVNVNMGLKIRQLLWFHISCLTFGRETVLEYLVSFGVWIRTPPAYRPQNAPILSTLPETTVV

B1: rabbit monoclonal antibody 3A5 (antibody, V domains shown)
VH: QSVKESGGRLVTPGTPLTLTCTVSGFSLSSYEMGWVRQAPGEGLEWIGTISTGGSSYYASWAKGRFTISRTSTTVDLKMTSLTTADTATYFCARGYGGYGIGAGYFNIWGPGTLVTVSS
VL: ALVMTQTPSSVSEPVGGTVTIKCQASQSISSYLAWYQRKPGQRPKLLIYGTSTLASGVPSRFIGSGSGTDYTLTISDLECDDAATYYCQQGFSTSNVYNSFGGGTKVDIK
notes: Recombinant rabbit monoclonal antibody expressed in 293F cells; also called 3A5 antibody
Kd [1]: 0.411 nM | EC50 (read off the curve) [2]: ~5 ng/mL | binding result [3]: binds | binding result [4]: no binding (tested: 1 µg/mL) | koff [5]: 0.000266 s⁻¹ | kon [5]: 648000 M⁻¹ s⁻¹ | EC50 [6]: 5.2 ng/mL | IC50 on the B cell infection model [7]: 4.9 µg/mL | IC50 on the epithelial cell infection model [7]: 0.31 µg/mL

B2: rabbit monoclonal antibody 3A3 (antibody, V domains shown)
VH: QSVKESGGRLVTPGTPLTLTCTVSGFSLSSYAMSWVRQAPGKGLEYIGVIYASGSTYYASWAKGRFTISRTATTVDLKITSPTTEDTATYFCGRGVSTNMWGPGTLVTVSS
VL: DLVMTQTPSSVSAAVGGTVTIKCQASQSLGGGLAWYQQKPGQRPKLLIYSASTLESGVPSRFRGSGSGTEFTLTISDLECADAATYYCQSAYGPTSNGLFNAFGGGTKVVIK
notes: Recombinant rabbit monoclonal antibody expressed in 293F cells; also called 3A3 antibody
Kd [1]: 0.863 nM | binding result [3]: binds | binding result [8]: no binding (tested: 1 µg/mL) | koff [5]: 0.000162 s⁻¹ | kon [5]: 188000 M⁻¹ s⁻¹ | EC50 [6]: 7 ng/mL | IC50 on the B cell infection model [7]: 2.97 µg/mL | IC50 on the epithelial cell infection model [7]: 0.07 µg/mL | binding result [9]: binds
